This note sets out measurements from paper PMC2387164, “A GATA4/WT1 cooperation regulates transcription of genes required for mammalian sex determination and differentiation”.

Data set [1] concerns the target WT1(+KTS) overexpressed in HeLa cells (mouse) (UniProt P22561).
Data set [2] has as its target T1, GATA4 (UniProt Q08369 1-441). Nature of the data set: EMSA; EMSA conditions as described previously (ref. 48); buffer, salt, pH and temperature not given. The following applies: protein: ivt; label: 32P (as probe); 5' overhang 4 nt (GATC) both ends.
The target of data set [3] is T1, GATA4. Nature of the data set: competition; competitor of labeled GATA site 1; EMSA conditions as described previously (ref. 48); buffer, salt, pH and temperature not given. To be noted: protein: ivt; 5' overhang 4 nt (GATC) both ends. (In general: Mobility shift assays separate free from complexed probe on a gel.)
Data set [4] has as its target WT1(-KTS) (mouse, UniProt P22561-4 1-446). Nature of the data set: EMSA; blocked by 10-fold excess self competitor; EMSA conditions as described previously (ref. 48); buffer, salt, pH and temperature not given. To be noted: protein: ivt; label: 32P (as probe); 5' overhang 4 nt (GGAT on strand 1, GATC on strand 2).
Data set [5] deals with WT1(+KTS) (mouse, UniProt P22561 1-449). The data set is described as above. The following applies: protein: ivt; label: 32P (as probe); 5' overhang 4 nt (GGAT on strand 1, GATC on strand 2).
Sequence of WT1(+KTS) (P22561 whole entry): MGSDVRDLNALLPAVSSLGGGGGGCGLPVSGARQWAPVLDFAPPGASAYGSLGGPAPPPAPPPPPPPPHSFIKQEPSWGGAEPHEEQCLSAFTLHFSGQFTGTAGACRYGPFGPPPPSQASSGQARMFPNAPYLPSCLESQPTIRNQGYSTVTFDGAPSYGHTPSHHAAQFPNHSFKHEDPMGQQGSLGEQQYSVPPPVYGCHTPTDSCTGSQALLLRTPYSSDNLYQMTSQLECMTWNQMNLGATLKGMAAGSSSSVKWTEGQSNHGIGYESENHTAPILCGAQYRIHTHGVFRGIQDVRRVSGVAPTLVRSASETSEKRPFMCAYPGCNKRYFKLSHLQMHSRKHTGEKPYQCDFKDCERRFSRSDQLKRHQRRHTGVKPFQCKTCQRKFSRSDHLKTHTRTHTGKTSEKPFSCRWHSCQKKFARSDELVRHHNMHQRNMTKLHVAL

T1 sequence (Q08369 whole entry): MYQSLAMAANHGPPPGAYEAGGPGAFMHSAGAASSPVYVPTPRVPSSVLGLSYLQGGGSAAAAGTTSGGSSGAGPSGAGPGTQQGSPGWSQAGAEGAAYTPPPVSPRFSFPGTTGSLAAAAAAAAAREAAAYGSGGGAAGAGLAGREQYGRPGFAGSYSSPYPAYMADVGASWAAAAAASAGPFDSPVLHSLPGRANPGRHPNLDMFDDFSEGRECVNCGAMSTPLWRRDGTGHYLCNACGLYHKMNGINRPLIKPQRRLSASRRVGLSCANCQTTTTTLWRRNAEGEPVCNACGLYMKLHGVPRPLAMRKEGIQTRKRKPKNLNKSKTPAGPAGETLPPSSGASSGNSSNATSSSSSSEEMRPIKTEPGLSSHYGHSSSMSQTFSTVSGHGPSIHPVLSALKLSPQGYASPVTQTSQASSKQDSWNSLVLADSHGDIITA
Sequence of WT1(+KTS) overexpressed in HeLa cells (mouse) (P22561 whole entry): as the sequence (P22561 whole entry) above
Sequence of WT1(-KTS) (P22561 other isoform, or with tags, fused parts or gaps): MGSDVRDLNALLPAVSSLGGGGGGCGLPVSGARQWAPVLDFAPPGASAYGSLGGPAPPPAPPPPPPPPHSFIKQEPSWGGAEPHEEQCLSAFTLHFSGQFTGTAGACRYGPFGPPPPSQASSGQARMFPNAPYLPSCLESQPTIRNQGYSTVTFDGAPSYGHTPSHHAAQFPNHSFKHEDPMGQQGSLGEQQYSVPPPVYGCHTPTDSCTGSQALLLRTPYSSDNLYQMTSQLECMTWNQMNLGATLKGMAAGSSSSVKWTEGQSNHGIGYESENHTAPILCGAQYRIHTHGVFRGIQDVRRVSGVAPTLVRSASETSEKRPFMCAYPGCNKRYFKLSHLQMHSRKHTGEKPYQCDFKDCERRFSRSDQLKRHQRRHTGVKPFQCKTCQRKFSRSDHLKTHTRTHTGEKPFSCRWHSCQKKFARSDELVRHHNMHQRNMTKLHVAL

Consider “GATA4 overexpressed in HeLa cells (from UniProt P46152 1-440) (natural protein)”, for which, in data set [1], the luciferase reporter, -1090 bp mouse Sry promoter, co-transfected HeLa cells, fold activation over control was determined as 30 fold and the luciferase reporter, -1400 bp pig SRY promoter, co-transfected HeLa cells, fold activation over control was found to be 50 fold.

B1: pig SRY GATA site 1 (dsDNA)
DNA 1: GATCCGCCTTATTATCATAATAAA
DNA 2: GATCTTTATTATGATAATAAGGCG
Regarding B1, the binding result in data set [2] is listed as “binds”.

B2: pig SRY GATA site 4 (dsDNA)
DNA 1: GATCCCCAAGGTTATCTGTTTTTA
DNA 2: GATCTAAAAACAGATAACCTTGGG
On to B2, for which, in data set [3], the binding result is reported as “binds”.

B3: human AMH distal WT1 element (dsDNA)
DNA 1: GGATCACTGGGGAGGGAGATAGGA
DNA 2: GATCTCCTATCTCCCTCCCCAGTG
In the case of B3, the binding result in data set [4] and in data set [5] was “binds” in each case.

B4: pig SRY GATA site 2 (dsDNA)
DNA 1: GATCCATTGGGTTATCTTGAATCA
DNA 2: GATCTGATTCATGATAACCCAATG
Consider B4, for which the binding result in data set [3] is “binds”.

B5: pig SRY GATA site 3 (dsDNA)
DNA 1: GATCCACATACTGATAATCATCAA
DNA 2: GATCTTGATGATTATCAGTATGTG
Take B5: in data set [3], the binding result is reported as “binds”.
